Test results taken from the RNAGym collection of RNA variant scans (doi:10.1021/acssynbio.7b00057).

B1: Pistol ribozyme (parent)
chain: GGGUCGUUGUUCCAUAAUCGCGUGGAUAUGGCACGCAAGUUUCUACCGGGCACCGUAAAUGUCCGACUGGAGCCGUUCGGGCGGCUAUAAACAGACCUCAGGCCCGAAGCGUGGCGGCACCUGCCGCCGGUGGUAAAAAAGAUCGGAAGAGCACACGUCU

Variants of: B1
Assay: aptazyme ON/OFF ratio, guanine; higher = stronger switching; co-transcriptional cleavage with and without guanine

Going from GGGUCGAGAGAGAAUAAUCGCGUGGAUAUGGCACGCAAGUUUCUACCGGGCACCGUAAAUGUCCGACUGGAGCCGUUCGGGCGGCUAUAAACAGACCUCAGGCCCGAAGCGUGGCGGCACCUGCCGCCGGUGGUAAAAAAGAUCGGAAGAGCACACGUCU to GGGUCGAGAGAGUAUAAUCGCGUGGAUAUGGCACGCAAGUUUCUACCGGGCACCGUAAAUGUCCGACUGGAGCCGUUCGGGCGGCUAUAAACAGACCUCAGGCCCGAAGCGUGGCGGCACCUGCCGCCGGUGGUAAAAAAGAUCGGAAGAGCACACGUCU, the “aptazyme ON/OFF ratio” value rises from 1.15 to 1.22.

First: GGGUCGAGAGAGGAUAAUCGCGUGGAUAUGGCACGCAAGUUUCUACCGGGCACCGUAAAUGUCCGACUGGAGCCGUUCGGGCGGCUAUAAACAGACCUCAGGCCCGAAGCGUGGCGGCACCUGCCGCCGGUGGUAAAAAAGAUCGGAAGAGCACACGUCU
Second: GGGUCGAGAGGCCAUAAUCGCGUGGAUAUGGCACGCAAGUUUCUACCGGGCACCGUAAAUGUCCGACUGGAGCCGUUCGGGCGGCUAUAAACAGACCUCAGGCCCGAAGCGUGGCGGCACCUGCCGCCGGUGGUAAAAAAGAUCGGAAGAGCACACGUCU
The “aptazyme ON/OFF ratio” value of the first is lower: 1.11 for the first, 1.39 for the second.

Compared with GGGUCGAGAGCCCAUAAUCGCGUGGAUAUGGCACGCAAGUUUCUACCGGGCACCGUAAAUGUCCGACUGGAGCCGUUCGGGCGGCUAUAAACAGACCUCAGGCCCGAAGCGUGGCGGCACCUGCCGCCGGUGGUAAAAAAGAUCGGAAGAGCACACGUCU, GGGUCGAGAGAGCAUAAUCGCGUGGAUAUGGCACGCAAGUUUCUACCGGGCACCGUAAAUGUCCGACUGGAGCCGUUCGGGCGGCUAUAAACAGACCUCAGGCCCGAAGCGUGGCGGCACCUGCCGCCGGUGGUAAAAAAGAUCGGAAGAGCACACGUCU is higher in “aptazyme ON/OFF ratio” value: 1.01 for the first, 1.28 for the second.

Compared with GGGUCGAGAGAUCAUAAUCGCGUGGAUAUGGCACGCAAGUUUCUACCGGGCACCGUAAAUGUCCGACUGGAGCCGUUCGGGCGGCUAUAAACAGACCUCAGGCCCGAAGCGUGGCGGCACCUGCCGCCGGUGGUAAAAAAGAUCGGAAGAGCACACGUCU, GGGUCGAGAGAACAUAAUCGCGUGGAUAUGGCACGCAAGUUUCUACCGGGCACCGUAAAUGUCCGACUGGAGCCGUUCGGGCGGCUAUAAACAGACCUCAGGCCCGAAGCGUGGCGGCACCUGCCGCCGGUGGUAAAAAAGAUCGGAAGAGCACACGUCU is higher in “aptazyme ON/OFF ratio” value: 1.12 for the first, 1.28 for the second.

Going from GGGUCGAGAGAUAAUAAUCGCGUGGAUAUGGCACGCAAGUUUCUACCGGGCACCGUAAAUGUCCGACUGGAGCCGUUCGGGCGGCUAUAAACAGACCUCAGGCCCGAAGCGUGGCGGCACCUGCCGCCGGUGGUAAAAAAGAUCGGAAGAGCACACGUCU to GGGUCGAGAGAUUAUAAUCGCGUGGAUAUGGCACGCAAGUUUCUACCGGGCACCGUAAAUGUCCGACUGGAGCCGUUCGGGCGGCUAUAAACAGACCUCAGGCCCGAAGCGUGGCGGCACCUGCCGCCGGUGGUAAAAAAGAUCGGAAGAGCACACGUCU, the “aptazyme ON/OFF ratio” value falls from 1.7 to 1.27.

Compared with GGGUCGAGAGAUGAUAAUCGCGUGGAUAUGGCACGCAAGUUUCUACCGGGCACCGUAAAUGUCCGACUGGAGCCGUUCGGGCGGCUAUAAACAGACCUCAGGCCCGAAGCGUGGCGGCACCUGCCGCCGGUGGUAAAAAAGAUCGGAAGAGCACACGUCU, GGGUCGAGAGGACAUAAUCGCGUGGAUAUGGCACGCAAGUUUCUACCGGGCACCGUAAAUGUCCGACUGGAGCCGUUCGGGCGGCUAUAAACAGACCUCAGGCCCGAAGCGUGGCGGCACCUGCCGCCGGUGGUAAAAAAGAUCGGAAGAGCACACGUCU is higher in “aptazyme ON/OFF ratio” value: 1.35 for the first, 1.46 for the second.

First: GGGUCGAGAGAAAAUAAUCGCGUGGAUAUGGCACGCAAGUUUCUACCGGGCACCGUAAAUGUCCGACUGGAGCCGUUCGGGCGGCUAUAAACAGACCUCAGGCCCGAAGCGUGGCGGCACCUGCCGCCGGUGGUAAAAAAGAUCGGAAGAGCACACGUCU
Second: GGGUCGAGAGAAUAUAAUCGCGUGGAUAUGGCACGCAAGUUUCUACCGGGCACCGUAAAUGUCCGACUGGAGCCGUUCGGGCGGCUAUAAACAGACCUCAGGCCCGAAGCGUGGCGGCACCUGCCGCCGGUGGUAAAAAAGAUCGGAAGAGCACACGUCU
The “aptazyme ON/OFF ratio” value of the first is higher: 1.19 for the first, 1.11 for the second.

Compared with GGGUCGAGAGAAGAUAAUCGCGUGGAUAUGGCACGCAAGUUUCUACCGGGCACCGUAAAUGUCCGACUGGAGCCGUUCGGGCGGCUAUAAACAGACCUCAGGCCCGAAGCGUGGCGGCACCUGCCGCCGGUGGUAAAAAAGAUCGGAAGAGCACACGUCU, GGGUCGAGAGCUUAUAAUCGCGUGGAUAUGGCACGCAAGUUUCUACCGGGCACCGUAAAUGUCCGACUGGAGCCGUUCGGGCGGCUAUAAACAGACCUCAGGCCCGAAGCGUGGCGGCACCUGCCGCCGGUGGUAAAAAAGAUCGGAAGAGCACACGUCU is lower in “aptazyme ON/OFF ratio” value: 1.41 for the first, 1.14 for the second.

First: GGGUCGAGAGCUGAUAAUCGCGUGGAUAUGGCACGCAAGUUUCUACCGGGCACCGUAAAUGUCCGACUGGAGCCGUUCGGGCGGCUAUAAACAGACCUCAGGCCCGAAGCGUGGCGGCACCUGCCGCCGGUGGUAAAAAAGAUCGGAAGAGCACACGUCU
Second: GGGUCGAGAGCUAAUAAUCGCGUGGAUAUGGCACGCAAGUUUCUACCGGGCACCGUAAAUGUCCGACUGGAGCCGUUCGGGCGGCUAUAAACAGACCUCAGGCCCGAAGCGUGGCGGCACCUGCCGCCGGUGGUAAAAAAGAUCGGAAGAGCACACGUCU
The “aptazyme ON/OFF ratio” value of the first is lower: 1.09 for the first, 1.32 for the second.
